Laboratory results from patent US20250152729A1 (CANCER RESEARCH TECHNOLOGY, published 2025).

Legend:
[1] = molecular target: T1, recombinant human SEMA4A AviHis10, biotinylated (human, UniProt Q9H3S1 33-683, biotin on the Avi tag (BirA)); experiment: BLI (OctetRED), biotinylated SEMA4A on streptavidin tip, Fab as analyte, 1:1 model
T1 construct: The text says amino acids 33-683 of Q9H3S1 with C-terminal Avi tag and His10 tag; also called avi-SEMA4A-His10
T1 sequence: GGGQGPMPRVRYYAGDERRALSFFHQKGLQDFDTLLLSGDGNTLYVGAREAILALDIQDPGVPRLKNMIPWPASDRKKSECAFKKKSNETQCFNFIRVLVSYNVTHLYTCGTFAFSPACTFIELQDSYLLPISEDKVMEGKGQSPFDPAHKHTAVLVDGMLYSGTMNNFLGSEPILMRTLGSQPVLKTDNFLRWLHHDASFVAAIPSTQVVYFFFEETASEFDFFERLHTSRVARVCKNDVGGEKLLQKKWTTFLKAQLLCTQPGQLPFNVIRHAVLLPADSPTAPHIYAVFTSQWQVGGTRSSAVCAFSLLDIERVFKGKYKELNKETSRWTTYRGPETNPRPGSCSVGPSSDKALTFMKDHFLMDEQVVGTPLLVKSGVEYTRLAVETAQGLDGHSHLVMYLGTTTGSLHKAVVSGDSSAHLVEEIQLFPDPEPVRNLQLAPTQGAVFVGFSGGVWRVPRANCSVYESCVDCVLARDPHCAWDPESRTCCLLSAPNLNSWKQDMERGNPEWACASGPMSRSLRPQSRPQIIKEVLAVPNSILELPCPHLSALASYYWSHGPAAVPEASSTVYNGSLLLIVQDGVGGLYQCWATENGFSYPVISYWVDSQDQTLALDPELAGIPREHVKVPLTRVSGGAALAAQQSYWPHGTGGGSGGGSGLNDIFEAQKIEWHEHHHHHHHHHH
Experimental: (§1) An Octet Kinetics buffer (PBS containing 0.01% (v/v) BSA and 0.002% (v/v) Tween20) is typically used as the diluent buffer for the analyte samples and as the flow buffer during the dissociation phase. The experimental data is recorded as shift in interference pattern (nm) over time, which is directly proportional to the optical thickness at the biosensor tip, which in turn is an approximate measure of the mass of analyte bound. The proprietary Octet Data Analysis software package can then be used to process data and fit binding models to the data sets. Returned association (ka, M-1 s-1) and dissociation (kd, s-1) rate constants allow calculation of dissociation (KD, M) affinity constants.
(§2) The affinity of binding between the analytes (humanised and phage display derived IgGs as human Alya IgG1s and Fabs) and human SEMA4A and cynomolgus SEMA4A, was estimated using assays in which the biotinylated SEMA4A antigen was captured on a streptavidin sensor tip. A fresh sensor tip was used for each measurement and no regeneration was used. A series of dilutions of the lead Fabs and human Alya IgG1s (3.25-240 nM) were individually placed in contact with the ligand surface for a sufficient amount of time to observe sensorgrams that could be fitted to an appropriate binding model with confidence (typically 5 minutes), followed by an appropriate length of dissociation time (typically 10 minutes). Blank reference (0 nM analyte) data were subtracted from each dataset to reduce the impact of any buffer artefacts or non-specific binding effects. A 1:1 binding model was then fitted simultaneously to the data from each analyte titration using the Octet Evaluation software (Table 8).

[2] = molecular target: T2, recombinant cynomolgus SEMA4A AviHis10, biotinylated (cynomolgus, UniProt Q9H3S1 32-677 (human entry), biotin on the Avi tag (BirA)); experiment: as above
T2 construct: The text says amino acids 32-679 of G7NV79 with C-terminal Avi tag and His10 tag; also called Cyno SEMA4A AviHis10; cynoSEMA4A
T2 chain: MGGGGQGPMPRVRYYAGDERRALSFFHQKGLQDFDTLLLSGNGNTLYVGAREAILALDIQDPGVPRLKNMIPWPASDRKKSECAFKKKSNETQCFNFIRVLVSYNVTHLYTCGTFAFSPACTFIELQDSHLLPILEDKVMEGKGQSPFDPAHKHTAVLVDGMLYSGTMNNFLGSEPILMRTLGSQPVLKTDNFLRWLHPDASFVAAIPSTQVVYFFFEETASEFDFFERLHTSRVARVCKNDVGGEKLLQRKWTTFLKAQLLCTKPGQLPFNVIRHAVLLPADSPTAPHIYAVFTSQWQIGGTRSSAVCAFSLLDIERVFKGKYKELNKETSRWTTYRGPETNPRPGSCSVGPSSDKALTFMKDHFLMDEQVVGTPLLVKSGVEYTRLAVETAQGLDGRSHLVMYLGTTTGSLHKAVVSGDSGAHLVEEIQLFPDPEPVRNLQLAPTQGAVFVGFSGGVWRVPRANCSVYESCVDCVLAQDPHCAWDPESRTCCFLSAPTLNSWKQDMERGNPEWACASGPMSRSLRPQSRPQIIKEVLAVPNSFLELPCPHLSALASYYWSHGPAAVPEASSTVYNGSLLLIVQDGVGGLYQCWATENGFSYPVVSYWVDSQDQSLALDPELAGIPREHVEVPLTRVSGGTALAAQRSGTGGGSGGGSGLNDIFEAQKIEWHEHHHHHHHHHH
Experimental: as §1, §2

[3] = molecular target: T3, human SEMA4A expressed on cells (UniProt ID Q9H3S1, isoform 1) (human, UniProt Q9H3S1 33-761); experiment: direct binding of un-purified human IgG1 to MM.1S cells endogenously expressing human SEMA4A (Mirrorball, anti-human Alexa Fluor 647); single concentration, 1.56 % final
T3 construct: Cell-surface SEMA4A: endogenous on MM.1S, NCI-H929 and Karpas-25 cells, or expi293 cells transfected with Origene SC323738; also called human Semaphorin4A; SEMA4A endogenously expressed on MM.1S cells
T3 sequence: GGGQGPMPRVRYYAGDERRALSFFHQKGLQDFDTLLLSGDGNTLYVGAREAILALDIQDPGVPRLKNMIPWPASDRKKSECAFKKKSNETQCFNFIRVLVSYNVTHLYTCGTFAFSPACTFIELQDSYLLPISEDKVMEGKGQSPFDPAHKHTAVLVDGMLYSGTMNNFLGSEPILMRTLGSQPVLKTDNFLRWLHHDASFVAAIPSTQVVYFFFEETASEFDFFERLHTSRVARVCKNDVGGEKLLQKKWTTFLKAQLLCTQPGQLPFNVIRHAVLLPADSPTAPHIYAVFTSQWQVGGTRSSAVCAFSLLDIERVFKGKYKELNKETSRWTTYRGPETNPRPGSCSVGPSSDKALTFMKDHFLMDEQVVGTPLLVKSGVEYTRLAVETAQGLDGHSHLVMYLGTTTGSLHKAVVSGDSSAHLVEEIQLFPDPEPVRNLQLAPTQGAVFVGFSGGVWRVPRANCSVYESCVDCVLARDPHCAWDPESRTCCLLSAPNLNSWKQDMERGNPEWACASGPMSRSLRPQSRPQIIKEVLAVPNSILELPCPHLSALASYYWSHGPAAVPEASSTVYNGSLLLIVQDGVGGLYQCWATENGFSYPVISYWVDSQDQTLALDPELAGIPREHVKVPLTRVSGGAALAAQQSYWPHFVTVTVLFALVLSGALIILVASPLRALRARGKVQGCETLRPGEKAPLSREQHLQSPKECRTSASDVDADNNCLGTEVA
Experimental: The MM.1S binding assay assessed the ability of the un-purified human IgG1s to bind directly to human SEMA4A that was endogenously expressed by MM.1S cells. Direct binding of a single concentration of un-purified human IgG1s to MM.1S cells was measured via an anti-human secondary labelled with Alexa Fluor 647 (Invitrogen, A21445). 10 μl undiluted un-purified IgG, contained in Expi293 expression medium (Gibco, UK, A1435101), were added to the assay plate (Greiner Bio-one, UK, 781906), followed by 10 μl 8 nM anti-human Alexa Fluor 647 and 20 μl MM.1S cell suspension containing 1,500 cells. The assay plate was incubated for 4 hours at room temperature in the dark prior to reading on a Mirrorball fluorescence cytometer (SPT Labtech, UK) using a 640 nm laser for excitation and measuring emission in the FL-4 channel (650-690 nm). Data was analysed as Count x median mean intensity (x FLU). All dilutions were performed in Hanks' balanced salt solution (Sigma, UK; cat: H8264) containing 0.1% (w/v) BSA (Sigma, UK; cat: A9576). Data were analysed and graphed using GraphPad Prism software (GraphPad Software, Inc, La Jolla, CA).

B1: mouse 5E3 Fab fragment (Fab, V domains shown)
VH: QVQLQQPGAELVMPGASVKMSCKASGYTFTDYWMHWVKQRPGQGLEWIGAIDTSDSYTSYNQKFKGKATLTVDESSSTAYMQLSSLTSEDSAVYYCARDYGNFYYYAMDYWGQGTSVTVSS
VL: QAVVTQESALTTSPGETVTLTCRSSTGAVTTSNYANWVQEKPDHLFTGLIGGTNNRAPGVPARFSGSLIGDKAALTITGAQTEDEAIYFCALWYSNHWVFGGGTKLTVL
notes: Fab from pEU1.3 Fab vector (human CH1 and part of hinge) with a whole human light chain constant; also called Mouse 5E3 (KD Fab)
- Kd [1]: 9 nM
- Kd [2]: 9 nM

B2: C0120904 (antibody, V domains shown)
VH: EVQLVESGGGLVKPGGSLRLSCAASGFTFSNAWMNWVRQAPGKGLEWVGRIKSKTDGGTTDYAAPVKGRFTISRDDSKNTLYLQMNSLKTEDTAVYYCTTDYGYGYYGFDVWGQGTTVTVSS
VL: SYELTQPPSVSVSPGQTATISCSGNKLGDGYVSWYQQKPGQSPVLVIYQDSKRPSGIPQRYSGSNSGNTATLTISGTQAIDEADYYCQAWDSSTVVFGGGTKVTVL
notes: un-purified fully human phage display IgG, primary screen; also called C0120904 un-purified human IgG1
- binding result [3]: binds

B3: 5Hg1-5Lg1 Fab fragment (Fab, V domains shown)
VH: QVQLVQSGAEVKKPGASVKVSCKASGYTFTDYWMHWVRQAPGQGLEWMGAIDTSDSYTSYNQKFKGRVTMTRDTSTSTVYMELSSLRSEDTAVYYCARDYGNFYYYAMDYWGQGTLVTVSS
VL: QAVVTQEPSLTVSPGGTVTLTCRSSTGAVTTSNYANWFQQKPGQAPRTLIYGTNNRAPWTPARFSGSLLGGKAALTLSGAQPEDEAEYYCALWYSNHWVFGGGTKLTVL
notes: Fab from pEU1.3 Fab vector (human CH1 and part of hinge) with a whole human light chain constant
- Kd [1]: 66 nM
- Kd [2]: 73 nM

B4: 5Hg2-5Lg2 Fab fragment (Fab, V domains shown)
VH: QVQLVQSGAEVKKPGASVKVSCKASGYTFTDYWMHWVRQAPGQRLEWMGAIDTSDSYTSYNQKFKGRVTITRDTSASTAYMELSSLRSEDTAVYYCARDYGNFYYYAMDYWGQGTLVTVSS
VL: QAVVTQEPSLTVSPGGTVTLTCRSSTGAVTTSNYANWFQQKPGQAPRTLIYGTNNRAPWTPARFSGSLLGGKAALTLLGAQPEDEAEYYCALWYSNHWVFGGGTKLTVL
notes: as for B3
- Kd [1]: 41 nM
- Kd [2]: 48 nM
